# Laboratory results taken from PMC3773880.
# B1: PD_(RgpB), recombinant N-terminal prodomain of RgpB, P95493 25-229 (domain or fragment)
# chain: GPLGSQPAERGRNPQVRLLSAEQSMSKVQFRMDNLQFTGVQTSKGVAQVPTFTEGVNISEKGTPILPILSRSLAVSETRAMKVEVVSSKFIEKKDVLIAPSKGVISRAENPDQIPYVYGQSYNEDKFFPGEIATLSDPFILRDVRGQVVNFAPLQYNPVTKTLRIYTEIVVAVSETAEAGQNTISLVKNSTFTGFEDIYKSVFMNYEATR
# Biological target: Rgps of P. gingivalis HG66 (all gingipain activity released in soluble, non-glycosylated form into media)
binder,measurement,value
B1,IC50 of inhibition of Rgp activity (L-BAPNA): HG66 (cell-free culture medium),0.012 µM
same,IC50 of inhibition of Rgp activity (L-BAPNA): HG66 (whole culture),0.116 µM
